Experimental data published in publication doi:10.1101/041756.
Like-named read-outs stand apart in the source and are kept apart here.

Experiments:
[1] = target: microtubules (human (endogenous in HeLa)) (UniProt P68363)
[2] = target: microtubules (human (endogenous in HeLa)) (UniProt P68363); remark: listed apart in the source

Chain of UniProt P68363 (P68363 whole entry): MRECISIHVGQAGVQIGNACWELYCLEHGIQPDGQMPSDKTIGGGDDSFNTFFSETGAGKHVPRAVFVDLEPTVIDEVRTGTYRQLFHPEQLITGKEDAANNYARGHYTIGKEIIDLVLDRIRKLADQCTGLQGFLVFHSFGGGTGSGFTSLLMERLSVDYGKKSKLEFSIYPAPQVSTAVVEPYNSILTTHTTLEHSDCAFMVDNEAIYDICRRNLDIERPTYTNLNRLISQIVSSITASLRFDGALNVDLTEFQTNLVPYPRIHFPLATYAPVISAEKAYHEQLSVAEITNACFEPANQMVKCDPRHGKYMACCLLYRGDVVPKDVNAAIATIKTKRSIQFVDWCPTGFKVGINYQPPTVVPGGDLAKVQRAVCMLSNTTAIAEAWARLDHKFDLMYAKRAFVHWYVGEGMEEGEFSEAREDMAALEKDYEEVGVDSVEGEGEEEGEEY

Substance	FRAP in living reporter cells: mobile fraction [1] [%]	other results
Conformational-Sensitive Tau sensor (ECFP-Tau-EYFP, full length Tau-D, 0N4R) (from UniProt P10636-6 1-383)		FRAP in living reporter cells: mobile fraction [2]: 73%; FRAP in living reporter cells: τ1 of the MTs-bound phase [2]: 30 s
P301L-CST	84	FRAP in living reporter cells: diffusive fraction [1]: 38%
S422E-CST	86	

Second part, led by results:

FRAP in living reporter cells: mobile fraction [1] [%]	Substance	other results
57	AT8mut-CST (S199A/S202A/T205A)	FRAP in living reporter cells: τ2 [1]: 46.8
85	P301S-CST	
